Measurements: PMC8280134

Biological target: GII.4 P-domain (crystallisation construct) (human norovirus GII.4)
Assay: crystal structure; P-domain and Fab mixed 1:1.5, complex isolated by gel filtration; crystals in 0.1 M BIS-TRIS propane pH 8.5, 0.2 M KSCN, 20% w/v PEG 3350, 20 °C

Substance: GII.4 P-domain (crystallisation construct) (domain or fragment)
- stoichiometry N: 2
